Results taken from patent publication US20260042834A1 (HBM ALPHA THERAPEUTICS, published 2026).
Values joined by “and” are separate entries in the source; they are usually repeats but may differ in a detail not shown here. Identical values can stand only once.

Columns and labels:
[1] = target: T1, corticotropin-releasing hormone (CRH) peptide (human and mouse (same sequence), not fully specified); assay: cell-based or functional assay
T1 peptide: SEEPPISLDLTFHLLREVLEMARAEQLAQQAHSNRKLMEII

CRH (CT-Biotin) = target: T2, CRH (CT-Biotin) (human and mouse (same sequence), biotin on an added C-terminal K (CRH-K-Biotin)); assay: ELISA, biotinylated CRH on streptavidin plate
T2 construct: also called Peptide 4 (CRH-Biotin)
T2 peptide: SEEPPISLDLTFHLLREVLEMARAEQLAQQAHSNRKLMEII
Protocol: (§1) Streptavidin (Thermo, Cat: 21125) was diluted in PBS to a concentration of 2 μg/ml. 100 μl of diluted streptavidin was added per well to ELISA microplates, and the plates were incubated overnight at 4° C. […] 100 μL of 3,3′,5,5′-tetramethylbenzidine (TMB) substrate (Biopanda, Cat: TMB-S-003) was added, and the plates were incubated at room temperature for 15 minutes. 100 μL of ELISA stopping solution (Solarbio, Cat #: C1058) was added to terminate the reaction, and the optical density at 450 nm (OD450 nm) was determined by an ELISA plate reader (Molecular Devices, Spectra max 384 plus).

CRH (NT-Biotin) = target: T3, CRH (NT-Biotin) (human and mouse (same sequence), not fully specified; biotin at the N-terminus); assay: ELISA, biotinylated CRH on streptavidin plate
T3 peptide: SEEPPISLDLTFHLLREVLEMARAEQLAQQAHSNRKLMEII
Protocol: as §1

CRH (CT Biotin) = target: T4, CRH (CT Biotin) (human and mouse, C-terminal K-Biotin); assay: ELISA, biotin peptide on streptavidin plate
T4 construct: also called Peptide 4 (CRH-Biotin)
T4 peptide: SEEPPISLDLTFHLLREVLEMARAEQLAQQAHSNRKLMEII
Protocol: as §1

CRH (NT Biotin) = target: T5, CRH (NT Biotin) (human and mouse, not fully specified; biotin at the N-terminus); assay: ELISA, biotin peptide on streptavidin plate
T5 peptide: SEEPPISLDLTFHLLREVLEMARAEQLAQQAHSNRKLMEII
Protocol: as §1

human UCN1 peptide = target: T6, human UCN1 peptide (human, UniProt P55089 83-122); assay: cell-based or functional assay
T6 peptide (looked up): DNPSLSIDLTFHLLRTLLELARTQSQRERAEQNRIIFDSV

[2] = target: T7, corticotropin-releasing hormone (CRH) peptide (human and mouse, not fully specified); assay: cell-based or functional assay
T7 peptide: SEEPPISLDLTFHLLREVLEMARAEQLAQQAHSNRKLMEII

biotinylated CRH = target: T8, biotinylated CRH (human and mouse, not fully specified; biotinylated, position not stated); assay: Octet BLI, biotinylated CRH on SA sensor
T8 construct: also called Biotin-CRH; biotin-labeled CRH
T8 peptide: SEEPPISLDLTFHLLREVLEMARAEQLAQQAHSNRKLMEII
Protocol: Octet® Red 96e was used for affinity measurement. Octet® running buffer was prepared by diluting kinetics buffer 10× (Fortebio, Cat #18-1105) in PBS according to the manufacturer's instructions. Two columns of SA sensors (Fortebio, Cat #18-5019) were hydrated in running buffer for 10 mins, one for ligand capturing and the other for reference. Antibodies were 2-fold diluted and added into a 96-well plate. […] After a 60-second baseline step, sensors were dipped into analyte and buffer wells successively, with the association and dissociation time of 180 seconds and 800 seconds, respectively. […] Signals of reference wells and reference sensors were subtracted by selecting “Double reference” before data fitting.

Row | Binder | hCRHR1 Luciferase Reporter Assay IC50 [1] | mCrhr1 Luciferase Reporter Assay IC50 [1] | EC50 (CRH (CT-Biotin)) | EC50 (CRH (NT-Biotin)) | EC50 (CRH (CT Biotin)) | EC50 (CRH (NT Biotin)) | CHO-CRE-hCRHR1 1 nM hUCH1 IC50 (human UCN1 peptide) | hUCN1 IC50/ CRH IC50 (human UCN1 peptide) | CHO-CRE-hCRHR1 0.5 nM CRH IC50 [2] | Kd (biotinylated CRH) | koff (biotinylated CRH) | kon (biotinylated CRH)
1 | PR005662 (antibody, human IgG1, kappa, V domains shown, PTM-removal variant of PR004290) VH: EVQLVESGGVLVQPGGSLRLSCAASGFTFSSYWMTWVRQAPGKGLEWVANIKQDASEKYYVDSVKGRFTISRDNAKNSLFLQMNSLRAEDTAVYYCARTLIFDYWGQGTLVTVSS VL: DIVMTQSPLSLPVTPGEPASISCRSSQSLLHSTGYQSLEWYLQKPGQSPQLLIYLGSNRASGVPDRFSGSGSGTDFTLKISRVEAEDVGIYYCMQTLQTPITFGQGTRLEIKR | 15.8 nM | 42.4 nM | 0.052 nM | 0.023 nM | – | – | – | – | – | – | – | –
2 | PR006144 (antibody, human IgG1, kappa, V domains shown, PTM-removal variant of PR004290) VH: EVQLVESGGVLVQPGGSLRLSCAASGFTFSSYWMTWVRQAPGKGLEWVANIKQEGSEKYYVDSVKGRFTISRDNAKNSLFLQMNSLRAEDTAVYYCARTLIFDYWGQGTLVTVSS VL: DIVMTQSPLSLPVTPGEPASISCRSSQSLLHSTGYNPLEWYLQKPGQSPQLLIYLGSNRASGVPDRFSGSGSGTDFTLKISRVEAEDVGIYYCMQTLQTPITFGQGTRLEIKR | 1.2 nM | 3.6 nM | 0.032 nM | 0.033 nM | – | – | – | – | – | – | – | –
3 | PR006142 (antibody, human IgG1, kappa, V domains shown, PTM-removal variant of PR004290) VH: EVQLVESGGVLVQPGGSLRLSCAASGFTFSSYWMTWVRQAPGKGLEWVANIKQEGSEKYYVDSVKGRFTISRDNAKNSLFLQMNSLRAEDTAVYYCARTLIFDYWGQGTLVTVSS VL: DIVMTQSPLSLPVTPGEPASISCRSSQSLLHSTGYDSLEWYLQKPGQSPQLLIYLGSNRASGVPDRFSGSGSGTDFTLKISRVEAEDVGIYYCMQTLQTPITFGQGTRLEIKR | 4.4 nM | – | 0.046 nM | 0.048 nM | – | – | – | – | – | – | – | –
4 | PR006148 (antibody, human IgG1, kappa, V domains shown, PTM-removal variant of PR004290) VH: EVQLVESGGVLVQPGGSLRLSCAASGFTFSSYWMTWVRQAPGKGLEWVANIKQDASEKYYVDSVKGRFTISRDNAKNSLFLQMNSLRAEDTAVYYCARTLIFDYWGQGTLVTVSS VL: DIVMTQSPLSLPVTPGEPASISCRSSQSLLHSTGYNPLEWYLQKPGQSPQLLIYLGSNRASGVPDRFSGSGSGTDFTLKISRVEAEDVGIYYCMQTLQTPITFGQGTRLEIKR | 2.5 nM | 4.87 nM | 0.03 nM | 0.035 nM | – | – | – | – | – | – | – | –
5 | PR302341 (antibody, human IgG1, kappa, V domains shown, Series 10; mouse variable domains with human IgG1 wildtype Fc) VH: EVQLQQSGPELVKPGASVKMSCKASGYTFTDYFMKWVKQSHGESLEWIGVINPNNGDIFYNQKFKGKATLTVDKSSSTAFMQLNSLTSEDSAVYSCARGTDRALFAYWGQGTLVAVSA VL: DVLMTQTPLSLPVSLGDQASISCRSGQSIVHSDGNTYLEWYLQRPGQSPRLLIYKVSNRFSGVPDRFSGSGSGTDFTLKISRVGAEDLGIYYCFQGSHIPWTFGGGTKLEVKR | – | – | – | – | 0.017 nM | 0.023 nM | 19 nM | 40 fold | 0.503 nM and 0.437 nM | < 0.001 nM | 2.18e-07 s⁻¹ | 1.01e+06 M⁻¹ s⁻¹

More lines, in order of falling EC50 (CRH (CT-Biotin)), values ahead:

Row | hCRHR1 Luciferase Reporter Assay IC50 [1] | mCrhr1 Luciferase Reporter Assay IC50 [1] | EC50 (CRH (CT-Biotin)) | EC50 (CRH (NT-Biotin)) | EC50 (CRH (CT Biotin)) | EC50 (CRH (NT Biotin)) | CHO-CRE-hCRHR1 1 nM hUCH1 IC50 (human UCN1 peptide) | hUCN1 IC50/ CRH IC50 (human UCN1 peptide) | CHO-CRE-hCRHR1 0.5 nM CRH IC50 [2] | Kd (biotinylated CRH) | koff (biotinylated CRH) | kon (biotinylated CRH) | Binder
6 | 12.1 nM | 39.9 nM | 0.027 nM | 0.023 nM | – | – | – | – | – | – | – | – | PR006147 (antibody, human IgG1, kappa, V domains shown, PTM-removal variant of PR004290) VH: EVQLVESGGVLVQPGGSLRLSCAASGFTFSSYWMTWVRQAPGKGLEWVANIKQDASEKYYVDSVKGRFTISRDNAKNSLFLQMNSLRAEDTAVYYCARTLIFDYWGQGTLVTVSS VL: DIVMTQSPLSLPVTPGEPASISCRSSQSLLHSTGYHSLEWYLQKPGQSPQLLIYLGSNRASGVPDRFSGSGSGTDFTLKISRVEAEDVGIYYCMQTLQTPITFGQGTRLEIKR
7 | 8.04 nM | 40.1 nM | 0.027 nM | 0.019 nM | – | – | – | – | – | – | – | – | PR006149 (antibody, human IgG1, kappa, V domains shown, PTM-removal variant of PR004290) VH: EVQLVESGGVLVQPGGSLRLSCAASGFTFSSYWMTWVRQAPGKGLEWVANIKQDASEKYYVDSVKGRFTISRDNAKNSLFLQMNSLRAEDTAVYYCARTLIFDYWGQGTLVTVSS VL: DIVMTQSPLSLPVTPGEPASISCRSSQSLLHSTGYSSLEWYLQKPGQSPQLLIYLGSNRASGVPDRFSGSGSGTDFTLKISRVEAEDVGIYYCMQTLQTPITFGQGTRLEIKR
8 | 4.89 nM | 18 nM | 0.024 nM | 0.025 nM | – | – | – | – | – | – | – | – | PR006146 (antibody, human IgG1, kappa, V domains shown, PTM-removal variant of PR004290) VH: EVQLVESGGVLVQPGGSLRLSCAASGFTFSSYWMTWVRQAPGKGLEWVANIKQDASEKYYVDSVKGRFTISRDNAKNSLFLQMNSLRAEDTAVYYCARTLIFDYWGQGTLVTVSS VL: DIVMTQSPLSLPVTPGEPASISCRSSQSLLHSTGYDSLEWYLQKPGQSPQLLIYLGSNRASGVPDRFSGSGSGTDFTLKISRVEAEDVGIYYCMQTLQTPITFGQGTRLEIKR
9 | 2.19 nM | 4.4 nM | 0.023 nM | 0.028 nM | – | – | – | – | – | – | – | – | PR006152 (antibody, human IgG1, kappa, V domains shown, PTM-removal variant of PR004290) VH: EVQLVESGGVLVQPGGSLRLSCAASGFTFSSYWMTWVRQAPGKGLEWVANIKQDSSEKYYVDSVKGRFTISRDNAKNSLFLQMNSLRAEDTAVYYCARTLIFDYWGQGTLVTVSS VL: DIVMTQSPLSLPVTPGEPASISCRSSQSLLHSTGYNPLEWYLQKPGQSPQLLIYLGSNRASGVPDRFSGSGSGTDFTLKISRVEAEDVGIYYCMQTLQTPITFGQGTRLEIKR
10 | 13.6 nM | 57.6 nM | 0.023 nM | 0.03 nM | – | – | – | – | – | – | – | – | PR006151 (antibody, human IgG1, kappa, V domains shown, PTM-removal variant of PR004290) VH: EVQLVESGGVLVQPGGSLRLSCAASGFTFSSYWMTWVRQAPGKGLEWVANIKQDSSEKYYVDSVKGRFTISRDNAKNSLFLQMNSLRAEDTAVYYCARTLIFDYWGQGTLVTVSS VL: DIVMTQSPLSLPVTPGEPASISCRSSQSLLHSTGYHSLEWYLQKPGQSPQLLIYLGSNRASGVPDRFSGSGSGTDFTLKISRVEAEDVGIYYCMQTLQTPITFGQGTRLEIKR
11 | 12.4 nM | 39.5 nM | 0.019 nM | 0.019 nM | – | – | – | – | – | – | – | – | PR006153 (antibody, human IgG1, kappa, V domains shown, PTM-removal variant of PR004290) VH: EVQLVESGGVLVQPGGSLRLSCAASGFTFSSYWMTWVRQAPGKGLEWVANIKQDSSEKYYVDSVKGRFTISRDNAKNSLFLQMNSLRAEDTAVYYCARTLIFDYWGQGTLVTVSS VL: DIVMTQSPLSLPVTPGEPASISCRSSQSLLHSTGYSSLEWYLQKPGQSPQLLIYLGSNRASGVPDRFSGSGSGTDFTLKISRVEAEDVGIYYCMQTLQTPITFGQGTRLEIKR
12 | 5.88 nM | 18.3 nM | 0.016 nM | 0.013 nM | – | – | – | – | – | – | – | – | PR006150 (antibody, human IgG1, kappa, V domains shown, PTM-removal variant of PR004290) VH: EVQLVESGGVLVQPGGSLRLSCAASGFTFSSYWMTWVRQAPGKGLEWVANIKQDSSEKYYVDSVKGRFTISRDNAKNSLFLQMNSLRAEDTAVYYCARTLIFDYWGQGTLVTVSS VL: DIVMTQSPLSLPVTPGEPASISCRSSQSLLHSTGYDSLEWYLQKPGQSPQLLIYLGSNRASGVPDRFSGSGSGTDFTLKISRVEAEDVGIYYCMQTLQTPITFGQGTRLEIKR
